Consider 22 molecules from patent US20250136720A1 (Boehringer Ingelheim, published 2025).

Substitutions are numbered along the chain they refer to. Names and notes keep the numbering of the source.

Sequences and labels used below:
B1: CD137 #4 (B21.V25) + FAP #5 (C3 VK1/VH4) (bispecific antibody, human IgG1, kappa, L234A L235A)
heavy: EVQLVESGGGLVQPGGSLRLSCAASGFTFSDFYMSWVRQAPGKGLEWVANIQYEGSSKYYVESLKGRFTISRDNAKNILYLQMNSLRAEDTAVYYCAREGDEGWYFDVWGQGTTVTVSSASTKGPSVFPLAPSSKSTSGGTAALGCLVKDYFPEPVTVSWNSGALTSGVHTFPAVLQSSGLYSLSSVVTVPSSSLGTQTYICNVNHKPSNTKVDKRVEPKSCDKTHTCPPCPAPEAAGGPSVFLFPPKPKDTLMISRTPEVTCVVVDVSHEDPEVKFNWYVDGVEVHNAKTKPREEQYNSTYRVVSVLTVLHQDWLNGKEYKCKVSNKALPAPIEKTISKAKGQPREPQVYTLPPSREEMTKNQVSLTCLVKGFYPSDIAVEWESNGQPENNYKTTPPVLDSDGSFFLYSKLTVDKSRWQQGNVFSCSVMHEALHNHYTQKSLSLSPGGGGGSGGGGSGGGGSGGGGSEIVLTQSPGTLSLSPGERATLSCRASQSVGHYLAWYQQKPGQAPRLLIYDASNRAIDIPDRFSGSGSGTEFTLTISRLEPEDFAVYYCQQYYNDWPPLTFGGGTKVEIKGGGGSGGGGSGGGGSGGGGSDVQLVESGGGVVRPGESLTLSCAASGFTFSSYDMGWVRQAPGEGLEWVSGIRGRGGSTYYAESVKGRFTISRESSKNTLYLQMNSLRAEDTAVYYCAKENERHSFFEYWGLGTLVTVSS
light: DIQMTQSPSSLSASVGDRVTITCRASQSISTAVAWYQQKPGKAPKLLIYAASYLYSGVPSRFSGSGSGTDFTLTISSLQPEDFAVYYCQQHYSNPWTFGQGTKLEIKRTVAAPSVFIFPPSDEQLKSGTASVVCLLNNFYPREAKVQWKVDNALQSGNSQESVTEQDSKDSTYSLSSTLTLSKADYEKHKVYACEVTHQGLSSPVTKSFNRGEC
B2: CD137 #2 (B21.V16) + FAP #5 (C3 VK1/VH4) (bispecific antibody, human IgG1, kappa, L234A L235A)
heavy: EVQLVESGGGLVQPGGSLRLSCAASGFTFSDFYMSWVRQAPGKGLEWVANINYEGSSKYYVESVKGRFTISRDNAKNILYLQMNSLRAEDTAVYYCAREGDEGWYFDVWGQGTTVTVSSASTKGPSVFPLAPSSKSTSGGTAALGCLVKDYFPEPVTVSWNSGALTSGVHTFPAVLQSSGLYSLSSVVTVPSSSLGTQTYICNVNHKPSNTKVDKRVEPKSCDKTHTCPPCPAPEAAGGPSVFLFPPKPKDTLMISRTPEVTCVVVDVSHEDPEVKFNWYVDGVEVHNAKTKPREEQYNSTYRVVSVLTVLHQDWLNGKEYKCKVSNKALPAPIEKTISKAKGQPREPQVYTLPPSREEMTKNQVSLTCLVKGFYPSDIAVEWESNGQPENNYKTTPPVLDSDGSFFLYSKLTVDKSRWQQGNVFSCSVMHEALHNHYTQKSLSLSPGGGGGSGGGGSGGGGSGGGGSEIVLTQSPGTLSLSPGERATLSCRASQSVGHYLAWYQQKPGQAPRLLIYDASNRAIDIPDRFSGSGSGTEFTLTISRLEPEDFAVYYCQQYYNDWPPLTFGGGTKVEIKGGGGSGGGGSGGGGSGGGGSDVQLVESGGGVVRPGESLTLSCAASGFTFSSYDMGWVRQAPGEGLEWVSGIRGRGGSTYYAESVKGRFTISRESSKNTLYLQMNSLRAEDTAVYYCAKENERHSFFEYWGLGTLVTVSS
light: B1 light with R24K, S28D, T31S, A50S, Y53S, L54R, S56T
B3: CD137 #B30 (antibody, human IgG1, V domains shown)
VH: QVQLQQSGPQLIRPGASVKISCKASGYSFTGYWIHWVKQRPGQGLEWIGMIDPSDSETRLNQKFKDKATLTVDKSSTTAYMQLSSPTSEDSAVFYCARYRNYGYDGFAHWGQGTLVTVSA
VL: DIVMTQSPSSLTVTAGEKVTMSCKSSQSLLNSGNEKNYLAWYQQKPGQPPKLLIYWASTRESGVPDRFTGSGSGTDFTLTISSVQTEDLAVYHCQNDYSLPLTFGAGTKLELK
notes: human IgG1 KO (L234A/L235A)/kappa chimeric IgG
B4: CD137 #B31 (antibody, human IgG1, V domains shown)
VH: B3 VH
VL: B3 VL
notes: as for B3
B5: CD137 #A2 (antibody, human IgG1, V domains shown)
VH: QVQLVQSGADVKKPGASVRVSCKASGYTFTSYPIHWVRQAPGHRLEWMGWSNAGIGNAKYSQEFQGRVTITRDTSASTAYMDLSSLTSEDLAVYYCAREGVAGAFDIWGQGTMVTVSA
VL: DIVMTQSPLSLPVTPGEPASISCRSSQNLLHSNGYNYLDWYLHKPGQSPQLLIYLGSIRASGVPDRFSGSESGTDFTLKISRVEAEDVGIYYCMQPLQIPYTFGQGTKLELK
notes: as for B3
B6: CD137 #B10 (antibody, human IgG1, V domains shown)
VH: QVQLVQSGAEVKKPGASVKVSCKASGYTFTNYPMHWVRQAPGQRLEWMGWSNAGSGNTKYSQDFQGRVSITRDTSASTAYMELSSLKSEDMAIYYCAREGVAGAFDIWGQGTVVTVSS
VL: B5 VL with N28R, Y35F, D39G, H43Q, I58H, E71G, I90V, L111I
notes: as for B3
B7: CD137 #A45 (antibody, human IgG1, V domains shown)
VH: B6 VH with T28I, S55I, S69T, S77N, A79S, K87R, I93V, A102T, I107Y, V113L
VL: B5 VL with N28S, Y35F, H43Q, Y54F, E86D, L111I
notes: as for B3
B8: CD137 #A46 (antibody, human IgG1, V domains shown)
VH: QVQLAQSGAEVKKPGASVKVSCKASGYTFSSFPMHWVRQAPGQRLEWMGWSNAGIGNTKYSQEFQGRVTITRDTSASTAYMELSSLRSEDMAVYYCAREGLTGAFDYWGQGTLVTVSS
VL: DIVMTQSPLSLPVTPGEPASISCRSSQSLLHSNGYNYLGWHLQKPGQSPQLLIYLGSYRASGVPDRFSGSGSGTDFTLKISRVEAEDVGVYYCMQPLQIPLTFGGGTKVEIK
notes: as for B3
B9: CD137 #A57 (antibody, human IgG1, V domains shown)
VH: B8 VH with A5V, A24T, S30T, F32Y, I55N, I70L, Y80F
VL: not shown
notes: as for B3
B10: CD137 #B9 (antibody, human IgG1, V domains shown)
VH: B8 VH with A5V, F29L, S30T, S31N, S51T, I55N, F64L, I70M, T78I, A92G
VL: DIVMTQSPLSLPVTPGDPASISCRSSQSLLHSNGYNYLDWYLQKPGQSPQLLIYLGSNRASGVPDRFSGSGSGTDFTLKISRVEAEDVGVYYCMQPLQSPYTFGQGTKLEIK
notes: as for B3
B11: CD137 #A30 (antibody, human IgG1, V domains shown)
VH: QVQLQQPGTEFVKPGASVKLSCKASDYTFTSHWMHWVKQRPGQGLEWIGEIDPSDSYTNYIQKFKGKATLTVDKSSSTAYMQLSSLTSEDSAVYYCARGDYYGTRYFDVWGAGTTVIVSS
VL: DIVMTQSPSSLSVSAGEKVTMSCKSGQNLFNSGNQKNYLAWYQQKPGQPPRLLIYGASTRESGVPDRFTGSGSGTDFTLTISSVQAEDLAVYYCQNDQSYPPTFGAGTKLELK
notes: as for B3
B12: CD137 #A16 (antibody, human IgG1, V domains shown)
VH: QVQLQQPGAELVKPGASVKLSCKASGYTFTNFWINWVKQRPGQALEWIGNIYPGNDNTNYNGNFKTKATLTVDRSSSTAYMHLSSLTSKDSAVYYCARGQLGLDYWGQGTTLTVSS
VL: DILLTQSPAILSVSPGERVSFSCRASQNIGTTIHWYHQRTNGSPRLLIKFASESISGIPSRFSGSGSGTDFTLSINSVESEDFADYYCQQSNSWPFTFGSGTKLEIK
notes: as for B3
B13: CD137 #A17 (antibody, human IgG1, V domains shown)
VH: B12 VH with T66S
VL: B12 VL with T32A
notes: as for B3
B14: CD137 #B3 (antibody, human IgG1, V domains shown)
VH: DVQLVESGGDLVQPGGSRKLSCAASGFTFSSFGMHWVRQAPERGLEWVAYISSGSSTIYYADTVKGRFIISRDNPKNTLFLQMTSLRSEDTAMYYCARDWVDYWGQGTSVTVSS
VL: QIVLTQSPAIMSASPGEKVTITCSASSSVNYIHWFQQKPGTSPKLWIYSTSNLASGVPARFSGRGSGTSYSLTISRMEAEDAATYYCLQGSSYPWTFGGGTKLEIK
notes: as for B3
B15: CD137 #A25 (antibody, human IgG1, V domains shown)
VH: B14 VH with D10G, T28S, R43K, I69T, A97V, V101T, S109T, V110L, S114T
VL: QIVLTQSPAIMSASLGEEITLTCSATSSVSYMHWSQQKSGTSPKLLIYTTSNLASGVPSRFSGSGSGTFYSLTISSVEAEDAADYYCHQWTTYPWTFGGGTKLEIK
notes: as for B3
B16: CD137 #A41 (antibody, human IgG1, V domains shown)
VH: QVQLQESGPGLVKPSETLSLNCTVSGGSISNYYWSWIRQPAGKGLEWIGRIYTSGNTNYNPSLKSRVTMSVDTSKNQFSLKLTSVTAADTAVYYCARDGNWNYADAFDIWGQGTMVTVSS
VL: DIQMTQSPSSVSASVGDRVTITCRASQGISSWLAWFQQIPGKAPKLLIYTASGLQSGVPSRFSGSGSGTDFTLTISSLQPEDFATYYCQQTNSFPFTFGPGTKVDIK
notes: as for B3
B17: CD137 #A4 (antibody, human IgG1, V domains shown)
VH: DVQLQESGPGLVKPSQSLSLTCTVTGYSITSDYVWNWIRQFPGNKLEWMGYISYSGGTRYNPSLKSRISITRDTSENQFFLQLDSVTTEDTATFYCARSGNWDWYFDAWGTGTTVTVSS
VL: DIQMTQTTSSLSASLGDRVTISCRPSQDISNYLDWYQQKPDGTVKLLIYSTSRLPSGVPSRFSGSGSGTDYSLTISNMEQEDIATYFCQQGNTFPPTFGGGTKLEIK
notes: as for B3
B18: CD137 #A3 (antibody, human IgG1, V domains shown)
VH: DVQLQESGPGLVKPSQSLSLTCTVTGYSITSDYGWNWIRQFPGNKVEWMGYISYSGSTSYNPSLKSRISITRDTSKNQFFLQLKSVTTEDTATYYCARSDPYYGISWFAYWGQGPLVTVSA
VL: B17 VL with P25A, Y32F, D34N, S50Y, P55H, M78L, G91S, N92H, F94L, P96W
notes: as for B3
B19: CD137 #A1 (antibody, human IgG1, V domains shown)
VH: QVQLVQSGAEVKKPGASVKVSCKASGYTLTNYPMHWVRQAPGQRPEWMGWSNAGNGNTKYSQEFQDRVTITRDTSASTAYMELSSLRSEDMAVYYCTREGVTGGFDIWGQGTMVTVSS
VL: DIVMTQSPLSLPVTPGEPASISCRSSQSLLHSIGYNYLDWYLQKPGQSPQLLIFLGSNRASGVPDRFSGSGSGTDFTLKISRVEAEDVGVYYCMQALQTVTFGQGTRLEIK
notes: as for B3
B20: CD137 #A44 (antibody, V domains shown)
VH: B19 VH with L29F, M34I, P45L, Q62P, A79V, A92S, T97A, G104A
VL: not shown
notes: as for B3
B21: CD137 #B12 (antibody, human IgG1, V domains shown)
VH: B19 VH with L29F, N31T, P45L, N55I, V68I, T71S, A79V, T97A, T102A
VL: B5 VL with N28S, D39N, H43Q, I90V, L111I
notes: as for B3
B22: CD137 #A12 (antibody, human IgG1, V domains shown)
VH: QVQLKQSGPGLVQPSQSLSITCTVSGFSLTSHGVHWVRQSPGKGLEWLGVIWSGGYTDYNAAFISRLSISTDNSKSHIFFKMNSLQADDTAIYYCARNGASYYYAMDYWGQGTSVTVSS
VL: DIVMTQAAFSNPVTLGISASISCRSSKSLLHSNGITYLYWYLQKPGQSPQLLIYQMSNLASGVPDRFSSSGSGTDFTLRISRVEAEDVGVYYCAQNLELPLTFGAGTKLELK
notes: human IgG1 KO (L234A/L235A)/kappa chimeric IgG; also called CD137 #Al2

The first assay concerns the target T1, Human CD137 on Jurkat cells (human, UniProt Q07011 24-255). Nature of the assay: cell-based or functional assay. Set-up: IC90; Jurkat-CD137 NFkB-luciferase, HT1080-FAP co-culture / EC90; Jurkat-CD137 NFkB-luciferase, HT1080-FAP co-culture: unit not given beside the values.
Turning to B1, the “EC90; Jurkat-CD137 NFkB-luciferase, HT1080-FAP co-culture” value is 1.38; the “IC90; Jurkat-CD137 NFkB-luciferase, HT1080-FAP co-culture” value turned out to be 77.8; the “Total AUC; Jurkat-CD137 NFkB-luciferase, HT1080-FAP co-culture” value came out at 3e+06.
For the molecule B2, the “EC90; Jurkat-CD137 NFkB-luciferase, HT1080-FAP co-culture” value is 0.87; the “IC90; Jurkat-CD137 NFkB-luciferase, HT1080-FAP co-culture” value turned out to be 74.3; the “Total AUC; Jurkat-CD137 NFkB-luciferase, HT1080-FAP co-culture” value came to 3.6e+06.

In another assay the target is T1, Human CD137 on Jurkat cells. Description: cell-based or functional assay. The source holds these as a separate data set.
In the case of B1, the “Average EC50; Jurkat-CD137 NFkB-luciferase, HT1080-FAP co-culture” value worked out at 0.175 nM; the “Average EC90; Jurkat-CD137 NFkB-luciferase, HT1080-FAP co-culture” value was 1.25 nM; the “Average IC50; Jurkat-CD137 NFkB-luciferase, HT1080-FAP co-culture” value came out at 559 nM; the “Average IC90; Jurkat-CD137 NFkB-luciferase, HT1080-FAP co-culture” value amounted to 98.6 nM. The “Ratio IC50/EC50; Jurkat-CD137 NFkB-luciferase, HT1080-FAP co-culture” value was determined as 3190 and the “Ratio IC90/EC90; Jurkat-CD137 NFkB-luciferase, HT1080-FAP co-culture” value was found to be 79.
Consider B2, for which the “Average EC50; Jurkat-CD137 NFkB-luciferase, HT1080-FAP co-culture” value is 0.233 nM; the “Average EC90; Jurkat-CD137 NFkB-luciferase, HT1080-FAP co-culture” value came to 2.23 nM; the “Average IC50; Jurkat-CD137 NFkB-luciferase, HT1080-FAP co-culture” value was found to be 538 nM; the “Average IC90; Jurkat-CD137 NFkB-luciferase, HT1080-FAP co-culture” value was determined as 110 nM. Further, the “Ratio IC50/EC50; Jurkat-CD137 NFkB-luciferase, HT1080-FAP co-culture” value stood at 2300 and the “Ratio IC90/EC90; Jurkat-CD137 NFkB-luciferase, HT1080-FAP co-culture” value worked out at 49.4.

Another assay shares this target. Nature of the assay: flow cytometry, Jurkat cells.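 Note: binding of antibody-containing supernatants to NF-kB-Luc2/4-1BB Jurkat cells, detected by flow cytometry with a PE-labelled anti-human IgG-Fc secondary antibody.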
Protocol: Briefly, HTP supernatants containing recombinant IgG1 (KO) antibodies, were assayed by flow cytometry for binding to the NF-kB-Luc2/4-1BB Jurkat cell line. […] The cells were washed x3 with staining buffer. A Goat F(ab′)2 anti-human IgG-Fc PE secondary antibody was added to the cells and the plate was incubated for 30 min at 4° C. The cells were wash ×3 with staining buffer.
Take B3: the binding result is “binds”.
Turning to B4, the binding result was “binds”.
B5: the binding result was “binds”.
The same measure, in the same setting: as for B6, the entry is “binds”.
Consider B7, for which the binding result was “binds”.
Regarding B8, the binding result is recorded as “binds”.
On to B9, for which the binding result is “binds”.
Same read-out and setting: as for B10, the entry is “binds”; as for B11, “binds”; as for B12, “binds”.
With B13, the binding result is recorded as “binds”.
On to B14, for which the binding result is on record as “binds”.
For the molecule B15, the binding result is given as “binds”.
On to B16, for which the binding result is “binds”.
Same read-out and setting: as for B17, the entry is “binds”; as for B18, “binds”; as for B19, “binds”.
Turning to B20, the binding result is listed as “binds”.
As to B21, the binding result is “binds”.
Same read-out and setting: as for B22, the entry is “binds”.
